From patent publication US20260209318A1 (NATIONAL UNIVERSITY OF SINGAPORE, published 2026)

B1: Ab44 (10x-L8N-c53) (antibody, V domains shown)
VH: QVQLQQSGAEVKKPGSSVKVSCESSGGTFTSHAINWVRQAPGQRLEWMGRIIPVLGVAAYAQKFQGRVTLTADKFTSTAYMELSSLRSEDTAVYFCARSAYNYDSSGYHFDYWGQGTLVLVSS
VL: DIQMTQSPSTLSASVGDRVTITCRASQSISNWLAWYQQKPGTAPKLLIFKASTLQSGVPSRFSGSGSGTEFTLTISSLQPDDFATYHCQQYHSSRSFGQGTKVEIK
B2: Ab40 (10x-L8N-c32) (antibody, V domains shown)
VH: QVQLQESGPRLVKPSETLSLTCTVSGGSISSYYWTWIRQPPGKGLEWIGYISYSGSTNYNPSLRSRVTMSVDTSKNQFSLDLNSVTAADTAVYYCATDGGGFYPGYFPHWGQGTLVTVSS
VL: DIQMTQSPSSLSASVGDRVTITCRASQSISDYVNWYQQKPGRAPRLLIYAPSTLQSGVPSRFSGSGSGTDFTLTISNLQPEDFGTYFCQQSYSTPPYTFGQGTKVEMK
B3: Ab43 (10x-L8N-c42) (antibody, V domains shown)
VH: EVQLVESGGGLVKPGGSLRLSCAASGFTFSRHTMNWVRQAPGKGLEWVSSIGGSTPLSFYAESVKGRFSISRDNAKSSLFLQMSSLRADDTAVYYCVRDSIASVTTLFDLWGRGTVVTVSS
VL: DIQMTQSPSSLSASVGDRVTITCRASQTIRNYINWYQQRPGKAPRLLIYDASTLQSGVPSRFSGGGSGTDFTLTISSLEPEDFATYYCQQSYVSPPEDSFGQGTKLEIK
B4: Ab46 (10x-L8N-c63) (antibody, V domains shown)
VH: QVHLVQSGAEVKKPGSSVKVSCKASGGTFSSHTVSWVRQAPGQGLEWMGRIIPPFGIVNYAQKFQGRVTITADESTSTAYMELSSLSSEDTAVYYCARSNVVVVTEAGWFDPWGQGTLVTVSS
VL: DIQMTQSPSSVSASVGDRVTITCRASQGISSSLAWYQQKPGKAPKVLIFDASTLQSGVPSRFSGSGSGTDFTLTISNLRPEDFATYYCQQAHSFPFTFGPGTKVDIK
B5: Ab47 (10x-L8N-c64) (antibody, V domains shown)
VH: QVQLVQSGAEVKKPGSSVKVSCEASGDTFSRYAITWVRQAPGQGLEWMGRIIPMFGSANYAQKFQGRVSFTADKSTSTASMELSSLRSEDTAVYYCATSPYYSDSGGYYCDYWGQGSLVTVSS
VL: DIQMTQSPSSLSASVGDRVTITCRASQGISNYLAWYQQKPGKAPKLLLYGASRLQSGVPSRFSGSGSGTDYTLTISSLQPEDFATFYCQQYYSAPRTFGQGTKVEIK
B6: Ab42 (10x-L8N-c41) (antibody, V domains shown)
VH: EVQLLESGGGLVQPGGSLRLSCAGSGFTFSSYAMSWVRQAPGKGLEWVSSISSSGGLTFYADSVRGRSTISRDHSRNTLYLQMNSLRAEDTALYYCAREQGDSYDDYFDYWGQGTLVTVSS
VL: DIQMTQSPSSLSASVGDRVTITCRASQGIRSSLAWYQQRPGKAPKLLLSAASILESGVPSRFSGSGSGTDYTLTINGLQPDDFATYYCQQYYVTPGITFGGGTKVEIR
B7: Ab48 (10x-L8N-c72) (antibody, V domains shown)
VH: QVQLQQWGAGLLKPSETLSLTCTVYGGSISGYYWNWIRQPPGKGLEWIGEIDHSGNTNYNSSLKSRITIALDTSKKEISLKVTSVTAADTAVYYCARLDYYHYSQDAWGQGTTVTVSS
VL: EIVLTQSPDFQSVTPKERVTITCRASQSIGASLHWYQLKPNQSPKLLIKYASQSISGVPSRFSGSGSGTDFTLTISSLEAEDAATYYCLQSSNLYSFGQGTKLEIK
B8: Ab41 (10x-L8N-c39) (antibody, V domains shown)
VH: QVQLVQSGAEVKKPGASVKVSCKGSGYTFTDYGISWVRQAPGQGLEWMGWIRAYNGNTDYAQKFQGRVTMTRDTSTTTAYMELRSLRSDDTAVYFCALNLIAAAATPFDHWGQGTLVTVSS
VL: EIVLTQSPGTLSLSRGERATLSCRASQSVSSSYLAWYQQKRGQAPRLLIYGATSRATGIPDRFSGSGSGTDFTLTISRLEPEDFAVYYCQHYGSSPPPFGGGTKVEIR

target: BQ.1.1 spike protein (SARS-CoV-2 variant BQ.1.1, UniProt P0DTC2 14-1273); test: cell-based or functional assay

Binder | IC50 (pVNT) [ng/ml]
B1 | ≤ 550
B2 | ≤ 550
B3 | ≤ 550
B4 | ≤ 550
B5 | ≤ 550
B6 | ≤ 550
B7 | ≤ 550
B8 | ≤ 550
